The results in this text go back to the supplement of paper PMC9112550, “Optimization of the antimicrobial peptide Bac7 by deep mutational scanning” (BMC Biology, 2022).
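Note: peptides expressed intracellularly from a pBAD plasmid library in pooled LB shake-flask culture, induced with 0.3% L-arabinose, DNA abundance read by NGS, three biological replicates, DESeq2 with apeglm shrinkage.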

The data set concerns Escherichia coli TOP10. As to the kind of experiment: shrunken log2 fold change of peptide-encoding DNA abundance (4.5 h post-induction vs induction); higher = less antimicrobial activity (less host growth inhibition). The conditions noted are these: time post-induction: 4.5 h; library: site-saturation at positions 5, 18, 19, 20.
Regarding RRIRPRPPRLPRPRPRPKPYPRP, the “shrunken log2 fold change” value was -0.0782. The same measure for RRIRLRPPRLPRPRPRPHFCPRP: 0.0717; for RRIRERPPRLPRPRPRPDDYPRP: -0.118. Take RRIRPRPPRLPRPRPRPYVEPRP: the “shrunken log2 fold change” value is -0.415. In the case of RRIRCRPPRLPRPRPRPVIWPRP, the “shrunken log2 fold change” value amounted to 0.0816.

RRIRCRPPRLPRPRPRPASLPRP: the “shrunken log2 fold change” value is -0.234. The same measure for RRIRNRPPRLPRPRPRPCPRPRP: -0.0673; for RRIRSRPPRLPRPRPRPLAKPRP: 0.358. Turning to RRIRPRPPRLPRPRPRPRPKPRP, the “shrunken log2 fold change” value stood at 3.22. The same measure for RRIRFRPPRLPRPRPRPTMMPRP: -0.0556; for RRIRARPPRLPRPRPRPYWSPRP: -0.186. As for RRIRMRPPRLPRPRPRPHQLPRP, the “shrunken log2 fold change” value is -0.0373. The same measure for RRIRGRPPRLPRPRPRPHNAPRP: 0.0947. Consider RRIRFRPPRLPRPRPRPFTTPRP, for which the “shrunken log2 fold change” value is -0.445. The same measure for RRIRQRPPRLPRPRPRPMSPPRP: -0.11; for RRIRHRPPRLPRPRPRPVAWPRP: 0.252; for RRIRLRPPRLPRPRPRPSQNPRP: -0.278.

Consider RRIRRRPPRLPRPRPRPIQVPRP, for which the “shrunken log2 fold change” value is -0.0268.

In the case of RRIRGRPPRLPRPRPRPSAGPRP, the “shrunken log2 fold change” value is 1.09. Then RRIRDRPPRLPRPRPRPIDDPRP, with 0.224. The same measure for RRIRIRPPRLPRPRPRPTLEPRP: 2.35. Then RRIRVRPPRLPRPRPRPEWIPRP, with -0.0835; and RRIRCRPPRLPRPRPRPMCIPRP, with -0.146. For RRIRLRPPRLPRPRPRPMLEPRP, the “shrunken log2 fold change” value came to 0.0968. RRIRLRPPRLPRPRPRPKNDPRP: the “shrunken log2 fold change” value is -0.563.

For RRIRLRPPRLPRPRPRPFMEPRP, the “shrunken log2 fold change” value is -0.35.

As for RRIRDRPPRLPRPRPRPPTAPRP, the “shrunken log2 fold change” value was 0.0444.

For the sequence RRIRPRPPRLPRPRPRPHLWPRP, the “shrunken log2 fold change” value was 0.181. Then RRIRHRPPRLPRPRPRPNNGPRP, with 0.0142; and RRIRVRPPRLPRPRPRPSREPRP, with 0.0823. Consider RRIRLRPPRLPRPRPRPDPVPRP, for which the “shrunken log2 fold change” value is -0.0275. In the case of RRIRFRPPRLPRPRPRPTNPPRP, the “shrunken log2 fold change” value is -0.0887.

On to RRIRDRPPRLPRPRPRPVVHPRP, for which the “shrunken log2 fold change” value was determined as 0.0965. Then RRIRTRPPRLPRPRPRPIMEPRP, with -0.409; and RRIRVRPPRLPRPRPRPWVQPRP, with -0.021. The same measure for RRIRWRPPRLPRPRPRPCFTPRP: -0.0397; for RRIRCRPPRLPRPRPRPFNLPRP: -0.335. RRIRIRPPRLPRPRPRPELEPRP: the “shrunken log2 fold change” value stood at 0.0281. Then RRIRRRPPRLPRPRPRPSIWPRP, with 0.032; and RRIRNRPPRLPRPRPRPEMPPRP, with -0.0738; and RRIRGRPPRLPRPRPRPAAFPRP, with 0.724.

As for RRIRPRPPRLPRPRPRPHNRPRP, the “shrunken log2 fold change” value is -0.0456. Then RRIRNRPPRLPRPRPRPTHSPRP, with -0.232. Then RRIRMRPPRLPRPRPRPKPIPRP, with 0.32. Regarding RRIRIRPPRLPRPRPRPWEQPRP, the “shrunken log2 fold change” value turned out to be 0.107. Then RRIRHRPPRLPRPRPRPYCNPRP, with -0.456. Then RRIRERPPRLPRPRPRPRKQPRP, with 0.00709; and RRIRNRPPRLPRPRPRPPNQPRP, with -0.0523. Regarding RRIRWRPPRLPRPRPRPPIVPRP, the “shrunken log2 fold change” value was 0.19.

Take RRIRKRPPRLPRPRPRPPHTPRP: the “shrunken log2 fold change” value turned out to be 0.534. For RRIRTRPPRLPRPRPRPGEDPRP, the “shrunken log2 fold change” value was determined as 0.109.

RRIRFRPPRLPRPRPRPAVSPRP: the “shrunken log2 fold change” value is -0.108. In the case of RRIRVRPPRLPRPRPRPYGWPRP, the “shrunken log2 fold change” value is -0.0905. The same measure for RRIRPRPPRLPRPRPRPLKRPRP: -0.161. Consider RRIRPRPPRLPRPRPRPFNPPRP, for which the “shrunken log2 fold change” value is -0.296. Consider RRIRRRPPRLPRPRPRPMPRPRP, for which the “shrunken log2 fold change” value was determined as 0.811. The same measure for RRIRWRPPRLPRPRPRPLIMPRP: -0.0185. Then RRIRWRPPRLPRPRPRPDPFPRP, with -0.0639; and RRIRFRPPRLPRPRPRPPYEPRP, with -0.202; and RRIRWRPPRLPRPRPRPDRYPRP, with -0.0301.

Consider RRIRMRPPRLPRPRPRPVKMPRP, for which the “shrunken log2 fold change” value was -0.124.

Turning to RRIRSRPPRLPRPRPRPVGNPRP, the “shrunken log2 fold change” value is -0.0399. Then RRIRSRPPRLPRPRPRPWDWPRP, with 0.676. The same measure for RRIRIRPPRLPRPRPRPHIQPRP: -0.791; for RRIRQRPPRLPRPRPRPRPKPRP: 0.936. The same measure for RRIRYRPPRLPRPRPRPTYIPRP: -0.58; for RRIRWRPPRLPRPRPRPHKDPRP: -0.115; for RRIRRRPPRLPRPRPRPVPIPRP: 0.137. In the case of RRIRDRPPRLPRPRPRPDKDPRP, the “shrunken log2 fold change” value stood at 0.0428.

In the case of RRIRKRPPRLPRPRPRPRFYPRP, the “shrunken log2 fold change” value amounted to 0.33. RRIRFRPPRLPRPRPRPEDEPRP: the “shrunken log2 fold change” value worked out at 0.0432.

As for RRIRYRPPRLPRPRPRPFCNPRP, the “shrunken log2 fold change” value was -0.0455.

As for RRIRSRPPRLPRPRPRPHTDPRP, the “shrunken log2 fold change” value was -0.216. The same measure for RRIRFRPPRLPRPRPRPLTGPRP: -0.196; for RRIRLRPPRLPRPRPRPMTEPRP: -0.0455.

With RRIRYRPPRLPRPRPRPRHVPRP, the “shrunken log2 fold change” value is -0.0478. The same measure for RRIRVRPPRLPRPRPRPQDSPRP: -0.069. Then RRIRFRPPRLPRPRPRPMIIPRP, with -0.871. Consider RRIRCRPPRLPRPRPRPMHLPRP, for which the “shrunken log2 fold change” value was found to be 0.0527. Then RRIRNRPPRLPRPRPRPMYTPRP, with -0.48; and RRIRTRPPRLPRPRPRPVRIPRP, with -0.0431. The same measure for RRIRPRPPRLPRPRPRPKKSPRP: 0.085. Turning to RRIRNRPPRLPRPRPRPPVPPRP, the “shrunken log2 fold change” value stood at 0.384.

Turning to RRIRGRPPRLPRPRPRPICTPRP, the “shrunken log2 fold change” value was 1.08. With RRIRSRPPRLPRPRPRPYPIPRP, the “shrunken log2 fold change” value is -0.356. Then RRIRTRPPRLPRPRPRPYRKPRP, with -0.0329. The same measure for RRIRNRPPRLPRPRPRPCHNPRP: -0.818; for RRIRDRPPRLPRPRPRPCQSPRP: -0.121; for RRIRTRPPRLPRPRPRPRVNPRP: 0.0441. The same measure for RRIRMRPPRLPRPRPRPDGVPRP: 0.0632; for RRIRSRPPRLPRPRPRPEINPRP: 0.0112; for RRIRWRPPRLPRPRPRPINQPRP: -0.0913.

In the case of RRIRHRPPRLPRPRPRPRDTPRP, the “shrunken log2 fold change” value turned out to be 0.123. Then RRIRRRPPRLPRPRPRPYETPRP, with 0.119; and RRIRPRPPRLPRPRPRPYIKPRP, with -0.939.

On to RRIRERPPRLPRPRPRPEVFPRP, for which the “shrunken log2 fold change” value worked out at 0.0133. Then RRIRGRPPRLPRPRPRPMAFPRP, with 0.572; and RRIRHRPPRLPRPRPRPYDQPRP, with -0.291; and RRIRWRPPRLPRPRPRPCQVPRP, with -0.0191. Take RRIRIRPPRLPRPRPRPYMHPRP: the “shrunken log2 fold change” value was -1.32. Then RRIRNRPPRLPRPRPRPNHNPRP, with -0.858; and RRIRQRPPRLPRPRPRPYSTPRP, with -0.0896. The same measure for RRIRTRPPRLPRPRPRPECGPRP: 0.51; for RRIRKRPPRLPRPRPRPHTMPRP: 0.205. Take RRIRRRPPRLPRPRPRPQNGPRP: the “shrunken log2 fold change” value was -0.0551. Then RRIRCRPPRLPRPRPRPMPNPRP, with -0.368; and RRIRSRPPRLPRPRPRPPQEPRP, with 0.295. On to RRIRCRPPRLPRPRPRPDTYPRP, for which the “shrunken log2 fold change” value is -0.075. For RRIRERPPRLPRPRPRPWAQPRP, the “shrunken log2 fold change” value was -0.0813. The same measure for RRIRERPPRLPRPRPRPVYIPRP: -0.0234; for RRIRIRPPRLPRPRPRPFNHPRP: -0.0691. The same measure for RRIRCRPPRLPRPRPRPMYMPRP: -0.143. Then RRIRHRPPRLPRPRPRPFAMPRP, with -0.424; and RRIRERPPRLPRPRPRPHFTPRP, with -0.246. For the sequence RRIRVRPPRLPRPRPRPKRAPRP, the “shrunken log2 fold change” value is 0.553. The same measure for RRIRWRPPRLPRPRPRPENGPRP: -0.109. As for RRIRDRPPRLPRPRPRPFNVPRP, the “shrunken log2 fold change” value was -0.00548. Regarding RRIRHRPPRLPRPRPRPMLVPRP, the “shrunken log2 fold change” value was -0.155. For RRIRTRPPRLPRPRPRPLTVPRP, the “shrunken log2 fold change” value was -0.267. The same measure for RRIRNRPPRLPRPRPRPAWMPRP: 0.056; for RRIRYRPPRLPRPRPRPSFNPRP: -0.756; for RRIRDRPPRLPRPRPRPASCPRP: 0.0585. The same measure for RRIRHRPPRLPRPRPRPHPPPRP: 0.261; for RRIRHRPPRLPRPRPRPARHPRP: 0.293.

For RRIRERPPRLPRPRPRPLVQPRP, the “shrunken log2 fold change” value was found to be 0.0736.
